Assay [1] addresses T1, IL-31-CEE: purified, recombinant human IL-31 fused at the C-terminal with a peptide consisting of the … (human, UniProt Q6EBC2 24-164).
T1 sequence: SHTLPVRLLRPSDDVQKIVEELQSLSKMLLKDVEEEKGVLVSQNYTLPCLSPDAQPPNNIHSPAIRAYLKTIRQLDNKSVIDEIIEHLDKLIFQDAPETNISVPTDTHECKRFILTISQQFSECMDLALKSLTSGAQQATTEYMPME
The experiment in a line: cell-based or functional assay.

In assay [2] the target is T2, mIL31-CEE: purified, recombinant mouse IL-31 (produced in BHK cells) fused at the C-terminus with a peptide … (mouse, UniProt Q6EAL8 31-163).
T2 construct: Biotinylated in the capture ELISA
T2 sequence: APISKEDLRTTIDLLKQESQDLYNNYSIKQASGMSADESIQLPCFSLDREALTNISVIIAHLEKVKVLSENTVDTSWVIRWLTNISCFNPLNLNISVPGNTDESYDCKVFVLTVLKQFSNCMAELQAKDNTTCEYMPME
Put plainly: ELISA on plate bound mIL-31-CEE, first round clone supernatant. For orientation: An ELISA detects its analyte on a solid surface through an enzyme-linked reagent.

Assay [3] has as its target T3, CEE peptide tag, sequence EYMPME.
T3 construct: Tested only as the C-terminal tag of the other species' IL-31-CEE, not as a free peptide; also called CEE tag
T3 peptide: EYMPME
Put plainly: ELISA on plate bound mIL-31-CEE (tag tested as part of that protein).

The target in assay [4] is T1, IL-31-CEE: purified, recombinant human …. Put plainly: capture ELISA: mAb of first round clone supernatant captured on anti-mouse IgG Fc, biotinylated IL-31-CEE. As for the experimental part: These new supernatants were tested using the cell-based neutralization assay (serial 3-fold dilutions starting with neat supernatant and proceeding to a final 1:243 dilution) as well as a “capture” style ELISA assay similar to that used in the development of the rat anti-murine IL-31 mAbs with the following differences; 1) sheep anti-mouse IgG, Fc specific antibody (Jackson Immunoresearch) (1 ug/mL) as plate coating antibody, 2) plates blocked once with PBS-Tween+1% BSA for 1 hr, 3) a single titration of each supernatant added to wells (serial 3-fold dilutions starting with neat supernatant and proceeding to a final 1:2187 dilution), and 4) addition of biotinylated IL-31-CEE (3:1 molar ratio of biotin:protein), 200 ng/mL. This assay was felt to be more pertinent than the binding of antibody to plate bound IL-31-CEE as it assessed the ability of antibody to bind to IL-31-CEE in solution, a property essential to a good antibody for sandwich style ELISAs. It was in fact observed that a number of the master wells supernatants containing antibody that bound well to plate bound IL-31-CEE poorly recognized this molecule in solution.
To reduce the number of hybridomas going into further subcloning, two new assays were performed with exhausted supernatant from each of the selected first round clones. […]

B1: mouse anti-human IL-31 mAb from clone 292.105.4.1 (antibody, mouse IgG1, V domains shown)
VH: EVQLVESGGDLVKPGGSLKLSCAASGFTFSTYIMSWVRQSPEKRLEWVATINSGGYYTLYPDSVKGRFTISRDNAKNTLSLQLSSLRSEDTAMYFCARQEGWSSAWFAYWGQGTLVTVSA
VL: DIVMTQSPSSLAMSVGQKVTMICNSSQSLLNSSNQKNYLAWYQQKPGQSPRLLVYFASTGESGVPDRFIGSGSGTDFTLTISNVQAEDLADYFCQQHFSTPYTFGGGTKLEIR
notes: Mouse IgG1; assays used first round clone 292.105.4
As to B1, in assay [1], the “IC50 (ng/mL), cell-based neutralization (luciferase), IL-31-CEE at 300 pg/mL” value (from here on “IC50 (ng/mL), cell-based neutralization”) came out at 9.14 ng/mL and the “IC50 (pM), cell-based neutralization (luciferase), IL-31-CEE at 300 pg/mL” value (from here on “IC50 (pM), cell-based neutralization”) is 61 pM. In addition, the binding result in assay [2] was “no binding”. Moreover, the binding result in assay [3] is on record as “no binding”.

B2: mouse anti-human IL-31 mAb from clone 292.109.4.4 (antibody, mouse IgG1, V domains shown)
VH: EVQLVESGGDLVKPGGSLKLSCAASGFTFSTYIMSWVRQSPEKRLEWVATINSGGYYTLYPDSVKGRFTISRDNAKNTLSLQLSSLRSEDTAMYFCARQEGWSSAWFAYWGQGTLVTVSA
VL: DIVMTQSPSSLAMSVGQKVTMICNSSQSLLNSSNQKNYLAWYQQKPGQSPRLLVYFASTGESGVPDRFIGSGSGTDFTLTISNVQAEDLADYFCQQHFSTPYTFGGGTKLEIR
notes: Mouse IgG1; assays used first round clone 292.109.4
Regarding B2, in assay [1], the “IC50 (ng/mL), cell-based neutralization” value amounted to 8.29 ng/mL and the “IC50 (pM), cell-based neutralization” value was 55.2 pM. Besides, in assay [2], the binding result is listed as “no binding”. Besides, the binding result in assay [3] was “no binding”.

B3: mouse anti-human IL-31 mAb from clone 292.39.5.3 (antibody, mouse IgG1, V domains shown)
VH: EVQLVESGGDLVKPGGSLKLSCAASGFTFSTYIMSWVRQSPEKRLEWVATINSGGYYTLYPDSVKGRFTISRDNVKNTLSLQLSSLRSEDTAMYFCARQEGWSSAWFAYWGQGTLVTVSA
VL: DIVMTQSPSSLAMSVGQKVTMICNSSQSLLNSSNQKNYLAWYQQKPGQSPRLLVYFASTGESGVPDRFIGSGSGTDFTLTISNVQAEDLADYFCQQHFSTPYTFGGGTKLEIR
notes: Mouse IgG1; assays used first round clone 292.39.5
As for B3, the “IC50 (ng/mL), cell-based neutralization” value in assay [1] is 8.63 ng/mL. Besides, the “IC50 (pM), cell-based neutralization” value in assay [1] was determined as 57.5 pM. In addition, the binding result in assay [2] and in assay [3] was “no binding” throughout.

B4: mouse anti-human IL-31 mAb from clone 292.64.6.5.5 (antibody, mouse IgG1, V domains shown)
VH: EVQLVESGGDLVKPGGSLKLSCAASGFTFSTYIMSWVRQSPEKRLEWVATINSGGYYTLYPDSVKGRFTISRDNAKNTLSLQLSSLRSEDTAMYFCARQEGWSSAWFAYWGQGTLVTVSA
VL: DIVMTQSPSSLAMSVGQKVTMICNSSQSLLNSSNQKNYLAWYQQKPGQSPRLLIYFASTGESGVPDRFIGSGSGTDFTLTISNVQAEDLADYFCQQHFSTPYTFGGGTKLEIR
notes: Mouse IgG1; assays used first round clone 292.64.6
Broadly, the EC50 is the concentration needed to bring the measured effect to its halfway point. Regarding B4, in assay [1], the “IC50 (ng/mL), cell-based neutralization” value was determined as 10.1 ng/mL and the “IC50 (pM), cell-based neutralization” value was found to be 67 pM. The binding result in assay [2] is on record as “no binding”. Further, in assay [3], the binding result is “no binding”. For the same molecule, the EC50 in assay [4] was 3.4 ng/mL.

B5: mouse anti-human IL-31 mAb from clone 292.118.6.4 (ATCC Patent Deposit Designation PTA-6830) (antibody, mouse IgG1, V domains shown)
VH: EVQLVESGGGLVKPGGSLKLSCAVSGFTFKTYIMSWVRQSPEKRLEWVATINSGGYYTIYPDSVKGRFTISRDNAKNTLYLQMSSLRSEDTAMYYCARQEGWSSAWFAYWGQGTLVTVSA
VL: DIVMTQSPSSLAMSVGQKVTMICNSSQSLLNSSNQKNYLAWYQQRPGQSPRLLVYFASTGESGVPDRFMGSGSGTDFTLTISNVQAEDLADYFCQQHFSTPYTFGGGTKLEIR
notes: Mouse IgG1; assays used first round clone 292.118.6
Regarding B5, the “IC50 (ng/mL), cell-based neutralization” value in assay [1] was determined as 6.55 ng/mL. Further, the “IC50 (pM), cell-based neutralization” value in assay [1] worked out at 43.7 pM. Moreover, the binding result in assay [2] and in assay [3] was “no binding” throughout.

B6: mouse anti-human IL-31 mAb from clone 292.51.5.2 (antibody, mouse IgG1, V domains shown)
VH: EVQLVESGGDLVKPGGSLKLSCAASGFTFSSFVMSWVRQSPEKRLEWVATINSGGYYSFHPDSVKGRFTISRDNAKNTLYLQMSSLRSEDTAIYYCARQEGWSSAYFSYWGQGTLVTVSA
VL: DIVMTQSPSSLAMSVGQKVTMICKSSQSLLNSSNQKNYLAWYQQKPGHSPKLLVSFTSTRESGVPDRFIGSGSGTDFTLTITNMQAEDLADYFCQQHYDTPYTFGGGTKLEIR
notes: Mouse IgG1; assays used first round clone 292.51.5
On to B6, for which, in assay [1], the “IC50 (ng/mL), cell-based neutralization” value amounted to 6.48 ng/mL and the “IC50 (pM), cell-based neutralization” value was 43.2 pM. Moreover, the binding result in assay [2] is “no binding”. In addition, the binding result in assay [3] is “no binding”.

B7: mouse anti-human IL-31 mAb from clone 294.144.3.5 (ATCC Patent Deposit Designation PTA-6873) (antibody, mouse IgG1, V domains shown)
VH: QVQLQQSGPELMKPGASVKISCKATGYTFSTYWIEWIKQRPGHGLEWIGEILPGRGTTNYNAKFQGKATFTAETSSNTAYMQLSSLTSEDSAVYYCTTESKLGDDDYWQGTTLTVSS
VL: ENVLTQSPAIMSASPGERVTMTCSASSSVSYMHWYQQKSSNSPKLWIYDTTKLASGVPGRFSGSGSGNSYSLTISSMEAEDVATYFCFQGSEHPLTFGGGTTLEI
notes: Mouse IgG1
Turning to B7, the binding result in assay [2] and in assay [3] was “no binding” throughout. The half-maximal effective concentration (EC50) in assay [4] worked out at 13.4 ng/mL.

B8: mouse anti-human IL-31 mAb from clone 292.12.3.1 (ATCC Patent Deposit Designation PTA-6815) (antibody, mouse IgG1, V domains shown)
VH: QVQLQQSGAELARPGASVNLSCKASGYTLTRYWMQWVKQRPGQGLEWIGAIYPGDGDTRYSQKFKGKATLTADKSSSTAYMQLNNLASEDSAVYYCAFPDGYYAAPYGMDYWGQGTSVTVSS
VL: DIQMTQSPASLSASVGETVTITCRASGNIHNYLAWYQQKQGKSPQLLVYNAKTLADGVPSRFSGSRSETQYSLKINSLQPEDFGSYYCQHFWSTPWTFGGGTKLEIK
notes: Mouse IgG1, kappa; assays used supernatant of first round clone 292.12.3
As to B8, in assay [1], the “IC50 (ng/mL), cell-based neutralization” value was 1.2 ng/mL and the “IC50 (pM), cell-based neutralization” value was found to be 7.98 pM. Moreover, the binding result in assay [2] was “no binding”. Besides, the binding result in assay [3] is “no binding”.

B9: mouse anti-human IL-31 mAb from clone 292.72.3.1 (ATCC Patent Deposit Designation PTA-6816) (antibody, mouse IgG2a, V domains shown)
VH: QVQVQQSGAELARPGASVKLSCKASGYTLTRYWMQWVKQRPGQGLEWIGAIYPRDGDTRYSQKFKGKATLTADKSSTTAYMQLSSLASEDSAVYYCAYPDGSYAAPNGMEYWGQGSSVTVSS
VL: DIQMSQSPASLSASVGETVTITCRASGSIHNYLAWYQQKQGKSPQLLVYNAETLADGVPSRFSGSGSGTQYSLKISSLQPEDFGTYYCQHFWITPWTFGGGTKLEIK
notes: Mouse IgG2a; assays used first round clone 292.72.3
With B9, in assay [1], the “IC50 (ng/mL), cell-based neutralization” value stood at 2 ng/mL and the “IC50 (pM), cell-based neutralization” value worked out at 13.3 pM. The binding result in assay [2] is reported as “no binding”. Also, the binding result in assay [3] is on record as “no binding”.

B10: mouse anti-human IL-31 mAb from clone 292.84.1.6 (ATCC Patent Deposit Designation PTA-6871) (antibody, V domains shown)
VH: QVQLQQSGAELARPGASVNLSCKASGYTLTRYWMQWVKQRPGQGLEWIGTIYPGDGDTRYSQKFKGKASLTADKSSNTAYMQLNNLASEDSAVYFCAFPDGYYAAPYGMDYWGQGTSVTVSS
VL: DIQMTQSPASLSASVGETVTITCRASGNIHNYLAWYQQKQGRSPQLLVYNAKTLADGVPSRFSGSRSETQYSLKINSLQPEDFGSYYCQHFWSTPWTFGGGTKLEIK
notes: Mouse IgG2a, kappa; Assays used first round clone 292.84.1
Consider B10, for which, in assay [1], the “IC50 (ng/mL), cell-based neutralization” value was determined as 1.08 ng/mL and the “IC50 (pM), cell-based neutralization” value is 7.18 pM. Also, the binding result in assay [2] is “no binding”. For the same molecule, the binding result in assay [3] is reported as “no binding”.
